Measured values: patent CN106478818A (JIANGSU NOVOMAB BIOPHARMACEUTICALS INC, dated 2017)

T1: 重组TEM8蛋白 (recombinant TEM8 protein, 北京义翘神州生物技术有限公司) (UniProt Q9H6X2 33-321, limits assumed)
T1 construct: Bought recombinant protein coated on an ELISA plate; also called TEM8重组蛋白; 肿瘤内皮标记物8
T1 sequence (looked up): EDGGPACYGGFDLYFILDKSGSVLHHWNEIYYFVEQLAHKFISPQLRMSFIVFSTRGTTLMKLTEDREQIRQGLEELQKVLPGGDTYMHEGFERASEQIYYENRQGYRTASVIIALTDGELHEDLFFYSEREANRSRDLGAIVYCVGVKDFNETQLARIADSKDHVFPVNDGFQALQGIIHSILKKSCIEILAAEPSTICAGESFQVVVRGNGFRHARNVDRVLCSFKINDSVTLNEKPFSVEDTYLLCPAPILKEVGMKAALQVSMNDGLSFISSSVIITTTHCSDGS

B1: NMT802 (antibody, human IgG1, kappa, V domains shown)
VH: EVTLKESGPALVKPTQTLTLTCTFSGFSLSTSGMGVGWIRQPPGKALEWLAHIWWDDVKRYYPALKSRLTISKDTSKSQVVLTMTNMDPADTATYYCARIGYDWFPYWGQGTLVTVSS
VL: DIQMTQSPSFLSASVGDRVTITCKASQNVGIAVAWYQQKPGKAPKLLIYSASNRYTGVPSRFSGSGSGTDFTLTISYLQSEDFATYYCQQYRSYPLTFGGGTKVEIKR
notes: also called 单克隆抗体NMT802; NMT802抗体
B2: NMT803 (antibody, V domains shown)
VH: EVTLKESGPALVKPTQTLTLTCTFSGFSLSTSGMGVGWIRQPPGKALEWLAHIWWDDVKQYYPALKSRLTISKDTSKSQVVLTMTNMDPVDTATYYCARIGYDWFPYWGQGTLVTVSS
VL: DIQMTQSPSFLSASVGDRVTITCKASQNVGIAVAWYQQKPGKAPKLLIYSASNRYTGVPSRFSGSGSGTDFTLTISCLQSEDFATYYCQQYRFKPLTFGGGTKVEIK
notes: also called 单克隆抗体NMT803

Legend:
[1] = molecular target: T1, 重组TEM8蛋白 (recombinant TEM8 protein, …); assay: ELISA, TEM8 protein coated, antibody in 1:4 serial dilution, anti-human IgG-HRP
[2] = molecular target: T2, TEM8 on TEM8稳定过表达细胞株 (CHO-K1 cells stably transfected with the full-length TEM8 gene) (human, UniProt Q9H6X2 33-564); assay: cell-based binding on plated TEM8-overexpressing cells, anti-human-Eu, time-resolved fluorescence
T2 construct: also called TEM8过表达细胞; 细胞膜TEM8

| Binder | EC50 [1] | EC50 [2] |
| --- | --- | --- |
| B1 | 0.0324 µg/mL | 0.133 µg/mL |
| B2 | 0.00544 µg/mL | 0.765 µg/mL |
